# Patent US20170115291A1, “Activating JAK Kinase Biomarkers Predictive of Anti-Immune Checkpoint Inhibitor Response” (Dana-Farber Cancer Institute, Inc., priority 2014, published 2017)
# System: CD14+ myeloid cells
# Test: PBMC stimulation with IFNγ, PD-L1 on CD14+ myeloid cells by flow cytometry
# Assay type: cell-based, human
# Settings: JAK3 V722I positive patients vs JAK3 P132T positive patient or blood donor controls, 250 ng/ml, 48 h
# Protocol: Peripheral blood mononuclear cells (PBMCs) from patients identified as having JAK3 V722I or P132T variants (see sequencing section above) and healthy donors were isolated from fresh blood and platelet-depleted blood collars, respectively, by Ficoll method. PBMCs were plated at a density of 7.5×10^5 cells/ml in a 48-well plate and stimulated with 250 ng/ml IFNγ (PBL Interferon Source). No stimulation controls were set-up for each donor. At 48 h post-stimulation, cells were treated with 2 mM EDTA and collected for flow cytometry to assess for PD-L1 expression on CD14+ myeloid cells. Cells were stained with Live/Dead yellow viability dye (Invitrogen), as well as antibodies (BD Biosciences) against CD14 (M5E2), CD11b (ICRF44), and PD-L1 (MIH1) for 30 min at 4 C, and then fixed in BD Cytofix® buffer prior to analyses on BD LSR Fortessa SORT® HTS flow cytometer. Given the need to compare the difference between two means in relation to the variation in the data, a t-test was used to compare PD-L1 inducibility between V722I and non-V722I monocytes.
molecule,measurement,value
"IFN-γ: cytokine known to trigger PD-L1 in the tumor immune microenvironment (protein, UniProt P01579 24-161, looked up) Interferon gamma: QDPYVKEAENLKKYFNAGHSDVADNGTLFLGILKNWKEESDRKIMQSQIVSFYFKLFKNFKDDQSIQKSVETIKEDMNVKFFNSNKKKRDDFEKLTNYSVTDLNVQRKAIHELIQVMAELSPAAKTGKRKRSQMLFRG",Expression of PD-L1 on CD14+ myeloid cells,modest but significantly increased
